Experimental data taken from article PMC10244618.
Values joined by “and” are separate entries in the source; they are usually repeats but may differ in a detail not shown here. Equal values may be shown once.

B1: NF2 (merlin) isoform 7, human, full length (507 aa, lacks exons 2-3 = isoform-1 residues 39-121; exon-16 C-terminus), P35240-4 (parent)
chain: MAGAIASRMSFSSLKRKQPKTFTVRIVTMDAEMEFNCEVKKQILDEKIYCPPEASVLLASYAVQAKYGDYDPSVHKRGFLAQEELLPKRVINLYQMTPEMWEERITAWYAEHRGRARDEAEMEYLKIAQDLEMYGVNYFAIRNKKGTELLLGVDALGLHIYDPENRLTPKISFPWNEIRNISYSDKEFTIKPLDKKIDVFKFNSSKLRVNKLILQLCIGNHDLFMRRRKADSLEVQQMKAQAREEKARKQMERQRLAREKQMREEAERTRDELERRLLQMKEEATMANEALMRSEETADLLAEKAQITEEEAKLLAQKAAEAEQEMQRIKATAIRTEEEKRLMEQKVLEAEVLALKMAEESERRAKEADQLKQDLQEAREAERRAKQKLLEIATKPTYPPMNPIPAPLPPDIPSFNLIGDSLSFDFKDTDMKRLSMEIEKEKVEYMEKSKHLQEQLNELKTEIEALKLKERETALDILHNENSDRGGSSKHNTIKKPQAQGRRPICI

Variants of: B1
Assay: reverse yeast two-hybrid deep mutational scan (rY2H-seq): NF2 isoform 7 mutant library as bait mated with wild-type prey strains; selection on medium lacking adenine for non-interacting pairs; NextSeq paired-end sequencing; enrichment vs …
Conditions: yeast diploids after mating (RBait_S3 x RPrey_S3), 30 °C, selection for reporter genes on NB agar, HIGHER = WEAKER BINDING (the opposite of display enrichments): higher = stronger loss of interaction: reverse Y2H selects yeast in which bait and prey do NOT interact (growth without adenine), so a …, hits-only table, scale: rY2H score, numbering: uniprot, sequence starts at 1
[1] = with EMILIN1 (elastin microfibril interfacer 1), Q9Y6C2, human ABL2 co-expressed as the kinase-dead K35M mutant …
[2] = with EMILIN1 (elastin microfibril interfacer 1), Q9Y6C2, human tyrosine kinase ABL2 co-expressed as the active kinase …
[3] = with KDM1A (lysine-specific histone demethylase 1A; the table's label AOF2 is a gene synonym of KDM1A), O60341, human ABL2 co-expressed as the kinase-dead K35M mutant …
[4] = with KDM1A (lysine-specific histone demethylase 1A; the table's label AOF2 is a gene synonym of KDM1A), O60341, human tyrosine kinase ABL2 co-expressed as the active kinase …
[5] = with NF2 C-terminal domain (wild type; homomeric NF2-NF2 interaction), P35240, human ABL2 co-expressed as the kinase-dead K35M mutant …, partner unresolved
[6] = with PIK3R3 (phosphatidylinositol 3-kinase regulatory subunit gamma), Q92569, human tyrosine kinase ABL2 co-expressed as the active kinase …

| Variant | enrichment [1] | enrichment [2] | enrichment [3] | enrichment [4] | enrichment [5] | enrichment [6] |
| --- | --- | --- | --- | --- | --- | --- |
| V56C | 2.08 | 3.78 and 9.66 | 7.69 and 9.8 | 6.5 | 3.78 | 11.6 and 11.3 |
| R115C | 2.2 |  | 3.51 and 3.33 | 3.91 |  | 1.62 |
| Q261L | 4.37 |  |  |  |  |  |
| R293A | 1.56 | 4.55 and 5.13 | 2.38 | 6.57 | 1.81 | 10.8 and 3.63 |
| R293E | 2.19 | 2.64 |  |  |  |  |
| M292A | 6.8 |  |  |  |  |  |
| M292S | 1.52 |  | 1.74 |  | 1.49 | 1.46 |
| R268P | 1.95 |  |  |  |  |  |
| R268K | 3.47 |  |  |  |  |  |
| L256A | 5.54 |  |  | 2.38 |  |  |
| A312G | 1.62 |  |  |  |  |  |
| E303V | 5.6 and 16.3 |  |  |  |  |  |
| R270L | 1.78 | 6.66 |  |  | 2.39 |  |
| I171K | 2.56 | 1.76 | 4.6 | 8.42 |  | 6.85 |
| G157L | 1.8 and 2.26 | 7.41 and 6.52 | 2.15 and 1.62 | 10.1 and 8.48 | 1.76 |  |
| G157A | 6.42 |  |  | 5.01 | 2.36 and 4.41 |  |
| E296L | 2.9 |  |  |  |  |  |
| Q324A | 1.9 | 3.69 | 2.45 |  |  |  |
| E164L | 2.39 |  | 3.94 |  |  | 2.07 |
| E164K | 2.27 |  |  |  |  | 2.53 |
| E164A | 2.89 and 5.48 | 2.44 | 5.57 |  | 1.48 | 6.96 |
| Y61L | 3.12 | 5.18 | 9.24 | 7.08 | 3.55 | 4.61 and 3.92 |
| Q64A | 2.42 |  |  |  |  | 8.91 and 12.3 |

| Variant | enrichment [1] | enrichment [2] | enrichment [3] | enrichment [4] | enrichment [5] | enrichment [6] |
| --- | --- | --- | --- | --- | --- | --- |
| N180T | 1.38 |  |  |  |  |  |
| C217Y | 2.4 | 1.59 | 2.94 |  |  |  |
| A298K | 1.79 |  |  |  |  |  |
| A240S | 2.4 |  |  | 1.71 |  |  |
| E311A | 1.44 |  |  |  |  |  |
| K66A | 2.97 | 3.9 | 3.6 |  |  | 5.98 |
| K66E | 2.7 |  |  | 3.77 |  | 4.55 |
| E337K | 2.71 | 4.3 and 3.24 | 2.29 |  |  |  |
| E337T | 5.26 |  |  |  |  |  |
| I334K | 1.69 |  | 2.46 | 3.87 |  | 2.88 |
| I334T | 1.75 | 1.68 and 2.52 | 2.69 and 1.45 |  |  |  |
| I334L | 1.59 and 1.85 |  |  | 3.11 |  | 1.39 |
| I334E | 2.52 |  | 4.73 and 1.72 |  |  | 2.25 |
| I141A | 20.7 |  | 21.3 and 14.9 | 30.8 |  |  |
| I329L | 3 | 2.26 and 2.09 | 4.07 | 3.51 | 1.91 and 3.47 |  |
| I329E | 2.28 | 1.79 and 3.15 |  | 3.19 and 2.75 | 2.93 |  |
| A333T | 2.19 |  |  |  |  |  |
| A333L | 2.47 |  | 1.58 | 1.46 |  |  |
| A333K | 1.75 | 5.66 | 4.26 and 3.03 |  |  |  |
| Q82A | 4.41 |  | 9.08 | 4.66 | 2.07 |  |
| D30A | 6.06 |  |  |  |  |  |
| D30L | 3.86 |  |  |  |  |  |
| T147E | 4.29 |  |  |  |  |  |

| Variant | enrichment [1] | enrichment [2] | enrichment [3] | enrichment [4] | enrichment [5] | enrichment [6] |
| --- | --- | --- | --- | --- | --- | --- |
| R263L | 3.17 |  |  |  |  |  |
| R263T | 1.89 |  |  |  |  |  |
| R263K | 2.14 |  | 1.91 |  |  |  |
| T308K | 2.66 and 1.9 | 2.2 and 3.37 | 2.96 | 2.24 | 5.45 |  |
| T308D | 4.89 | 2.02 | 2.33 |  | 2.47 |  |
| T308E | 2.33 |  |  |  | 3.16 |  |
| L214E | 8.22 | 5.18 and 15.2 | 13.4 |  | 2.48 | 30 |
| K318L | 2.66 | 1.75 |  |  |  |  |
| K318T | 1.91 |  |  | 1.54 |  |  |
| K318E | 3.15 |  |  | 1.81 |  |  |
| K340E | 2.44 and 2.85 | 4.17 and 3.5 | 1.93 and 2.13 | 1.71 and 2.96 | 2.5 and 3.18 | 5 |
| K340A | 2.47 | 2.67 | 3.4 and 3.43 | 3.04 and 2.28 |  | 1.46 |
| K330E | 2.8 and 1.9 | 1.83 | 4.14 and 1.58 |  |  |  |
| T168L | 2.75 | 6.59 and 12.1 | 7.24 |  |  |  |
| L158A | 2.28 | 2.56 |  | 11 | 1.57 |  |
| L158K | 2.72 | 3.39 and 2.28 |  |  |  |  |
| L158E | 4.99 | 4.25 and 2.98 |  |  |  |  |
| E267A | 2.15 |  |  |  |  |  |
| R104E | 3.93 |  |  |  |  |  |
| R208C | 2.09 |  |  |  |  |  |
| N165E | 5.14 and 5.74 | 3.48 and 2.42 | 11.1 and 8.25 | 4.76 and 3.86 | 5.73 | 7.65 and 9.27 |
| N165L | 3.15 and 2.54 | 3.7 | 6 and 7.17 | 1.81 | 2.17 and 4.23 | 8.43 |
| N165A | 3.8 and 4.08 | 5.59 and 4.51 | 5.23 and 4.34 | 11.8 | 3.7 and 6.3 |  |

| Variant | enrichment [1] | enrichment [2] | enrichment [3] | enrichment [4] | enrichment [5] | enrichment [6] |
| --- | --- | --- | --- | --- | --- | --- |
| L57E | 1.73 |  |  |  |  |  |
| R328A | 2.29 |  | 1.66 |  |  |  |
| R328E | 2.55 |  |  |  |  | 3.12 |
| A319K | 3.24 | 1.77 | 7.16 |  |  |  |
| A319E | 2.5 | 5.2 and 4.57 |  | 5.63 | 1.39 and 4.04 | 4.37 |
| P163L | 3.08 | 3.88 | 7.24 | 5.95 | 1.78 | 12.3 |
| P163K | 5.55 |  | 7.04 | 5.58 |  |  |
| G114A | 7.29 |  |  |  | 2.02 | 3.53 |
| K246A | 2.24 |  |  |  |  |  |
| K246L | 3.03 and 1.45 |  |  |  |  |  |
| K246R | 1.4 | 1.64 |  |  |  |  |
| K88R | 1.95 | 2.74 |  |  |  |  |
| L348E | 2.15 | 2.19 |  |  | 1.71 |  |
| L348S | 3.01 | 3.29 | 4.93 |  |  |  |
| M343K | 3.5 | 1.81 |  | 3.6 |  |  |
| M343A | 2.55 and 1.66 | 2.55 and 2.14 |  |  |  |  |
| M343E | 2.88 and 3.18 | 3.19 | 3.76 | 2.07 and 4.72 |  | 1.45 |
| Y161L | 3.35 and 1.58 |  | 2.08 |  |  | 2.22 |
| Y161A | 2.53 | 2.63 |  | 2.23 | 2.34 | 2.72 |
| Y161K | 4.91 |  | 3.06 | 8.45 |  | 5.71 |
| Y161W | 3.13 and 2.01 | 6.81 |  |  |  | 5.85 |
| S60L | 2.18 |  | 2.95 |  |  |  |
| Q317E | 1.79 |  |  |  | 4.2 |  |
